Experimental data from PMC6158172, “A bidentate Polycomb Repressive-Deubiquitinase complex is required for efficient activity on nucleosomes” (Nature Communications, 2018).
Blank lines part the entries; values can stand above or below the binder they belong to.

B1: Calypso^43–404 (wild type), as in the Calypso^43–404–ASX^207–340 complex (enzyme, Drosophila melanogaster, UniProt Q7K5N4 43-404, looked up)
chain: ADGWLELESDPGLFTLLLKDFGCHDVQVEEVYDLQKPIESPYGFIFLFRWIEERRARRKIVETTAEIFVKDEEAISSIFFAQQVVPNSCATHALLSVLLNCNENNLQLGDTLSRLKTHTKGMSPENKGLAIGNTPELACAHNSHAMPQARRRLERTGAGVSSCRFTGEAFHFVSFVPINGQLFELDGLKPYPMNHGGWEDSEDWTDKFRRVMAERLGIATGEQDIRFNLMAVVPDRRIAITHKLKMLRTNQAIVSGTLQKLLKADEQGESGNGDSQRPDTPTTLLEPSAFTARDLQSLLKNLDTEIAINEQHLADENDRRHMFKVDASRRTHNYDKFICTFLSMLAHQGVLGELVSQHLLPS
notes: Calypso, deubiquitinase of the Drosophila PR-DUB, residues 43-404 (UCH domain, coiled-coil hairpin, ULD; lacks the C-terminal positively charged tail 405-471); Always handled together with ASX 207-340, with which it was co-expressed; two copies per 2:2 complex at high concentration; also called WT^(no tail); Calypso^(no tail); source: E. coli BL21 (DE3), co-expressed with ASX, purified …

Tests used:
[1] = target: the molecule itself; experiment: AUC; sedimentation velocity, c(s) analysis, 40 µM complex, 20 °C, 20 mM HEPES pH 7.8, 100 mM NaCl, 0.8 mM TCEP, 50,000 r.p.m.
[2] = target: the molecule itself; experiment: SEC-MALLS; Superdex 200 5/150 GL Increase, 20 mM HEPES pH 7.5, 100 mM NaCl; wild type injected at 90 and 45 μM, wild type and mutants at ~50 μM
[3] = target: B1; experiment: AUC; sedimentation velocity, c(s) analysis, 40 µM complex, 20 °C, 20 mM HEPES pH 7.8, 100 mM NaCl, 0.8 mM TCEP, 50,000 r.p.m.; settings: both partners purified
[4] = target: T1, Calypso(N292R)^43–404, as in the Calypso(N292R)–ASX complex (Drosophila melanogaster, UniProt Q7K5N4 43-404, N292R); experiment: SEC-MALLS; Superdex 200 5/150 GL Increase, 20 mM HEPES pH 7.5, 100 mM NaCl; wild type injected at 90 and 45 μM, wild type and mutants at ~50 μM; settings: both partners purified
T1 construct: Calypso, Drosophila, residues 43-404, N292R; Handled together with ASX 207-340; source: E. coli BL21 (DE3), co-expressed with ASX, purified (Ni-NTA, 3C cleavage, HiTrap Q, Superdex 200); not shown: His6, N-terminal, cleaved
T1 sequence (looked up): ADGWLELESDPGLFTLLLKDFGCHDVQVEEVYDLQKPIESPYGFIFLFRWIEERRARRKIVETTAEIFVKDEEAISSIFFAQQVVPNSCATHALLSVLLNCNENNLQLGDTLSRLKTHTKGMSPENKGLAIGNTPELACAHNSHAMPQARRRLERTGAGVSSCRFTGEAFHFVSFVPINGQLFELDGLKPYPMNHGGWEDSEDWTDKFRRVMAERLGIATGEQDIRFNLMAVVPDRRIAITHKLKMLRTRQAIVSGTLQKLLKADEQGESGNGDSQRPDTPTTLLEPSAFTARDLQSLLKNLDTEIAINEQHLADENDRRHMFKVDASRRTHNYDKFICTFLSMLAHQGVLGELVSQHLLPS

[5] = target: T2, Calypso(L340A)^43–404, as in the Calypso(L340A)–ASX complex (Drosophila melanogaster, UniProt Q7K5N4 43-404, L340A); experiment: as above; settings: both partners purified
T2 construct: Calypso, Drosophila, residues 43-404, L340A; Handled together with ASX 207-340; source: E. coli BL21 (DE3), co-expressed with ASX, purified (Ni-NTA, 3C cleavage, HiTrap Q, Superdex 200); not shown: His6, N-terminal, cleaved
T2 sequence (looked up): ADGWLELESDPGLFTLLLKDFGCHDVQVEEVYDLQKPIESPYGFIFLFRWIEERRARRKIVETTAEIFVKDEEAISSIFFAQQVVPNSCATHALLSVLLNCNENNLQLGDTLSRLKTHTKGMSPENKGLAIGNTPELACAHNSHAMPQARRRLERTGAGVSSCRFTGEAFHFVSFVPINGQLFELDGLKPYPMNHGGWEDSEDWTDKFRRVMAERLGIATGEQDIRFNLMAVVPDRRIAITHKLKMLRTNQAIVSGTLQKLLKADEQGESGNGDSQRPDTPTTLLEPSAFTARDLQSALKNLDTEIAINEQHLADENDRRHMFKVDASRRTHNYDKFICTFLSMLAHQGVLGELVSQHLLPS

Binder: B1
stoichiometry N [1]: 2

B2: Calypso(M288R)^43–404, as in the Calypso(M288R)–ASX complex (enzyme, Drosophila melanogaster, UniProt Q7K5N4 43-404, looked up)
chain: ADGWLELESDPGLFTLLLKDFGCHDVQVEEVYDLQKPIESPYGFIFLFRWIEERRARRKIVETTAEIFVKDEEAISSIFFAQQVVPNSCATHALLSVLLNCNENNLQLGDTLSRLKTHTKGMSPENKGLAIGNTPELACAHNSHAMPQARRRLERTGAGVSSCRFTGEAFHFVSFVPINGQLFELDGLKPYPMNHGGWEDSEDWTDKFRRVMAERLGIATGEQDIRFNLMAVVPDRRIAITHKLKRLRTNQAIVSGTLQKLLKADEQGESGNGDSQRPDTPTTLLEPSAFTARDLQSLLKNLDTEIAINEQHLADENDRRHMFKVDASRRTHNYDKFICTFLSMLAHQGVLGELVSQHLLPS
notes: Calypso, Drosophila, residues 43-404, M288R; Handled together with ASX 207-340; source: E. coli BL21 (DE3), co-expressed with ASX, purified (Ni-NTA, 3C cleavage, HiTrap Q, Superdex 200); not shown: His6, N-terminal, cleaved
binding result [2]: binds

stoichiometry N [3]: 1 ASX per Calypso (2:2)
stoichiometry N [4]: 1 ASX per Calypso (1:1)
stoichiometry N [5]: 1 ASX per Calypso (1:1)
B3: ASX^207–340 (Deubad domain of Additional Sex Combs), as in the Calypso^43–404–ASX^207–340 complex (domain or fragment, Drosophila melanogaster, UniProt Q9V727 207-340, looked up)
chain: DGKIDLETPDSILASTNLRALLNKQTFSLLPPLYQYNLIQLLPSVDREASESEAIRLSASCLNNEFFARACLEWRERLSEGEFTPENQLKLKTEAEREKNKLDPWKLKHFEPFWGEKNSRG
notes: Additional Sex Combs (ASX), Drosophila, Deubad domain, residues 207-340 with residues 258-270 omitted; Second open reading frame of the co-expression construct; also called ASX Deubad; source: E. coli BL21 (DE3), co-expressed with His6-Calypso, purified (Ni-NTA, HiTrap Q, Superdex 200)
